Patent publication US20100233714
Where two headings read alike, the source gives them in different places.

Experiments:
[1] = test system: IgG, polyclonal mixed human (Homo sapiens); experiment: filter; conditions: pH 6, 41 mM Na+
[2] = test system: IgG Fab2 fragment (human) (Homo sapiens); experiment: filter; conditions: pH 6, 41 mM Na+
[3] = test system: IgG3, monoclonal human (Homo sapiens); experiment: filter; conditions: pH 6, 41 mM Na+
[4] = test system: IgG1, monoclonal human (Homo sapiens); experiment: filter; conditions: pH 6, 41 mM Na+
[5] = test system: IgG Fc fragment (human) (Homo sapiens), P01857-1; experiment: filter; conditions: pH 6, 41 mM Na+
[6] = test system: IgG Fab2 fragment (mouse) (Mus musculus); experiment: filter; conditions: pH 6, 41 mM Na+
[7] = test system: IgA, monoclonal human (Homo sapiens); experiment: filter; conditions: pH 6, 41 mM Na+
[8] = test system: IgG2, monoclonal human (Homo sapiens); experiment: filter; conditions: pH 6, 41 mM Na+
[9] = test system: IgM, monoclonal human (Homo sapiens); experiment: filter; conditions: pH 6, 41 mM Na+
[10] = test system: IgG, polyclonal mouse (Mus musculus); experiment: filter; conditions: pH 6, 41 mM Na+
[11] = test system: IgG4, monoclonal human (Homo sapiens); conditions: ultrafiltration, Picogreen, 37.5 mM NaCl, 3.75 mM Na citrate, pH 6.0
[12] = test system: IgG3, monoclonal human (Homo sapiens); conditions: ultrafiltration, Picogreen; 37.5 mM NaCl, 3.75 mM Na citrate, pH 6.0
[13] = hexaethylene glycol (HEG, iSp18) linkers as loops

In the case of TTTTCGCGTGTGTGCGCGAA [RAD12], the Ka ([1]; pH5 7.61, pH7 6.37, pH8 5.74) is reported as 6.98 log10 M-1.
In the case of CCTCTTCTTTTTCTTCTC [RAD20], the Ka [2] is reported as 6.9 log10 M-1, the Ka [3] is reported as 6.84 log10 M-1 and the Ka [4] is reported as 7.34 log10 M-1. The Ka [5] was 5.96 log10 M-1, the Ka [6] was 7.41 log10 M-1 and the Ka ([1]; pH5 8.11, pH7 7.40, pH8 6.64) was 7.98 log10 M-1. For the same sequence, the Ka [7] was 7.53 log10 M-1, the Ka [8] was 7.85 log10 M-1 and the Ka [9] was 7.02 log10 M-1. The Ka [10] was 8.3 log10 M-1 and the Ka [11] was 7.67 log10 M-1.
With “CCTCTTCTTTTTCTTCTCCTTTTTGGAGAAG [RAD2 (triplex 31mer)]” the Ka [2] was 6.45 log10 M-1, the Ka [3] was 6.64 log10 M-1 and the Ka [4] was 7.04 log10 M-1. For the same sequence, the Ka [5] was 5.86 log10 M-1, the Ka [6] was 6.71 log10 M-1 and the Ka ([1]; pH5 8.74, pH7 6.96, pH8 6.57, Table 2 pH 6 6.96) was 7.61 log10 M-1. For the same sequence, the Ka [7] was 6.9 log10 M-1, the Ka [8] was 7.06 log10 M-1 and the Ka [9] was 6.73 log10 M-1. The Ka [10] was 7.49 log10 M-1 and the Ka [11] was 7.08 log10 M-1.
With TGGAGTCTGCGCGAGTCAGCGCTCAAGATC [RAD8] the Ka ([1]; pH5 8.41, pH7 6.86, pH8 6.84, Table 2 pH 6 6.13) was 7.85 log10 M-1.
In the case of TTTTCGCGCGTTAACGCGCGAA [RAD16], the Ka [2] is reported as 6.23 log10 M-1, the Ka [4] is reported as 6.87 log10 M-1 and the Ka [6] is reported as 6.11 log10 M-1. For the same sequence, the Ka ([1]; pH5 8.22, pH7 7.25, pH8 6.79) was 7.8 log10 M-1, the Ka [7] was 6.46 log10 M-1 and the Ka [8] was 6.11 log10 M-1. The Ka [9] was 6.26 log10 M-1, the Ka [10] was 7.07 log10 M-1 and the Ka [11] was 6.54 log10 M-1. For the same sequence, the Ka [12] was 6.31 log10 M-1.
In the case of TGGGCCGGTAACGGATTACCGTAAGGTCCC [RAD11], the Ka ([1]; pH5 8.31, pH7 6.85, pH8 6.85, Table 2 pH 6 6.51) is reported as 7.64 log10 M-1.
CTCTCTCTTTTTCTCTCTCTTTTTGAGAGAG [RAD9] was tested, and the Ka [2] was 6.44 log10 M-1, the Ka [4] was 7.05 log10 M-1 and the Ka [5] was 5.87 log10 M-1. For the same sequence, the Ka [6] was 6.75 log10 M-1, the Ka ([1]; pH5 8.67, pH7 7.04, pH8 6.94, Table 2 pH 6 7.02) was 7.74 log10 M-1 and the Ka [7] was 6.95 log10 M-1. The Ka [8] was 7.05 log10 M-1, the Ka [9] was 6.79 log10 M-1 and the Ka [10] was 7.46 log10 M-1. The Ka [11] was 7.06 log10 M-1 and the Ka [12] was 6.62 log10 M-1.
For GGTTGGTTTGGTTGG [RAD13], the Ka ([1]; pH5 7.55, pH7 6.46, pH8 6.53) was 6.96 log10 M-1.
For TGGGCCGGTAACGGGTTACCGTAAGGTCCC [RAD10], the Ka [2] was 6.43 log10 M-1, the Ka [4] was 7.04 log10 M-1 and the Ka [5] was 5.92 log10 M-1. For the same sequence, the Ka [6] was 6.76 log10 M-1, the Ka ([1]; pH5 8.41, pH7 6.81, pH8 6.72, Table 2 pH 6 6.31) was 7.65 log10 M-1 and the Ka [7] was 6.92 log10 M-1. For the same sequence, the Ka [8] was 7.01 log10 M-1, the Ka [9] was 6.7 log10 M-1 and the Ka [10] was 7.53 log10 M-1. The Ka [11] was 7 log10 M-1 and the Ka [12] was 6.62 log10 M-1.
In the case of CCTTCCTTTGGAAGGTTG [RAD23], the Ka [2] is reported as 5.64 log10 M-1, the Ka [3] is reported as 5.62 log10 M-1 and the Ka [4] is reported as 6.14 log10 M-1. The Ka [6] was 6.33 log10 M-1, the Ka ([1]; pH5 7.37, pH7 6.31, pH8 6.21) was 6.88 log10 M-1 and the Ka [7] was 6.38 log10 M-1. The Ka [8] was 6.86 log10 M-1, the Ka [9] was 6.08 log10 M-1 and the Ka [10] was 6.77 log10 M-1. For the same sequence, the Ka [11] was 5.97 log10 M-1.
GAGAGAGTTTTTGAGAGAGTTTTTCTCTCTC [RAD7] was tested, and the Ka [2] was 6.68 log10 M-1, the Ka [3] was 6.74 log10 M-1 and the Ka [4] was 7.3 log10 M-1. The Ka [5] was 5.99 log10 M-1, the Ka [6] was 6.97 log10 M-1 and the Ka ([1]; pH5 8.51, pH7 6.97, pH8 6.79, Table 2 pH 6 6.86) was 8.04 log10 M-1. For the same sequence, the Ka [7] was 7.33 log10 M-1, the Ka [8] was 7.25 log10 M-1 and the Ka [9] was 6.89 log10 M-1. For the same sequence, the Ka [10] was 7.69 log10 M-1 and the Ka [11] was 7.16 log10 M-1.
With CCTCTTCHEGCTTCTCCHEGGGAGAAG [RAD1] the Ka [2, 13] was 5.82 log10 M-1, the Ka [3, 13] was 6.17 log10 M-1 and the Ka [4, 13] was 6.38 log10 M-1. The Ka [5, 13] was 5.8 log10 M-1, the Ka [6, 13] was 6.38 log10 M-1 and the Ka ([1]; hexaethylene glycol (HEG, iSp18) linkers as loops, ultrafiltration, pH5 7.45, pH7 6.49, pH8 6.30, Table 2 (0.15 M NaCl, 1 mM MgCl2, pH 6) 7.01) was 6.51 log10 M-1. The Ka [7, 13] was 6.37 log10 M-1, the Ka [8, 13] was 6.51 log10 M-1 and the Ka [9, 13] was 6.32 log10 M-1. For the same sequence, the Ka [10, 13] was 6.6 log10 M-1.
With CCCTCCCTGGGCTTTTTTTGATTTTTCTTAA [RAD4] the Ka [2] was 6.89 log10 M-1, the Ka [3] was 6.66 log10 M-1 and the Ka [4] was 7.52 log10 M-1. The Ka [5] was 5.26 log10 M-1, the Ka [6] was 7.09 log10 M-1 and the Ka ([1]; pH5 8.48, pH7 7.10, pH8 7.02, Table 2 pH 6 6.89) was 8.13 log10 M-1. The Ka [7] was 7.66 log10 M-1, the Ka [8] was 7.67 log10 M-1 and the Ka [9] was 6.89 log10 M-1. For the same sequence, the Ka [10] was 7.71 log10 M-1 and the Ka [11] was 7.13 log10 M-1.
In the case of TGGTTGGTTTTTGGAAGGATTTTTTCCTTCC [RAD3], the Ka [2] is reported as 6.97 log10 M-1, the Ka [3] is reported as 6.69 log10 M-1 and the Ka [4] is reported as 7.45 log10 M-1. The Ka [5] was 6.34 log10 M-1, the Ka [6] was 7.09 log10 M-1 and the Ka ([1]; pH5 8.60, pH7 6.86, pH8 6.76, Table 2 pH 6 6.71) was 7.79 log10 M-1. For the same sequence, the Ka [7] was 7.38 log10 M-1, the Ka [8] was 7.36 log10 M-1 and the Ka [9] was 6.71 log10 M-1. The Ka [10] was 7.69 log10 M-1 and the Ka [11] was 7.2 log10 M-1.
CCTCTTCCTTCTCCGGAGAAG [RAD1] was tested, and the Ka ([11]; hexaethylene glycol (iSp18) linkers between the three segments) was 6.37 log10 M-1.
For CGCGAAAACGCG [RAD22], the Ka ([1]; pH5 5.95, pH7 6.04, pH8 5.97) was 6.25 log10 M-1.
TTTTCGCGCGTACGCGCGCGAA [RAD15] was tested, and the Ka [2] was 5.33 log10 M-1, the Ka [4] was 6.39 log10 M-1 and the Ka [6] was 6.21 log10 M-1. For the same sequence, the Ka ([1]; pH5 7.65, pH7 6.33, pH8 6.19) was 7 log10 M-1, the Ka [7] was 6.23 log10 M-1 and the Ka [8] was 6.18 log10 M-1. For the same sequence, the Ka [9] was 6.19 log10 M-1, the Ka [10] was 6.35 log10 M-1 and the Ka [11] was 6.13 log10 M-1. The Ka [12] was 6.22 log10 M-1.
With GAGTGAGTCTCAGTTAGTTTCGATTGATTCT [RAD5] the Ka ([1]; pH5 8.75, pH7 7.11, pH8 6.81, Table 2 pH 6 6.82) was 8.03 log10 M-1.
For TTTGGTTGGTTTGGTTGG [RAD19], the Ka ([1]; inosine (I) at printed positions [inosine (written G): 4,14], pH5 7.82, pH7 6.50, pH8 6.04) was 7.14 log10 M-1.
GGAAAGGTTTTTGGAAAGGTTTTTCCTTTCC [RAD6] was tested, and the Ka ([1]; pH5 8.50, pH7 6.86, pH8 6.74, Table 2 pH 6 6.84) was 7.96 log10 M-1.
